The series concerns the molecule itself. Kind of series: SEC; two tandem Superdex 200 3.2/30 PC columns, 100 mM Tris-HCl pH 7.9, 0.15 M NaCl, room temperature, about 50 µg refolded protein; monomer to oligomer equilibrium. (In gel filtration, larger molecules generally elute earlier.)

B1: soluble recombinant DC-SIGN, entire extracellular domain (residues 70-404) (domain or fragment)
chain: EQSRQDAIYQNLTQLKAAVGELSEKSKLQEIYQELTQLKAAVGELPEKSKLQEIYQELTRLKAAVGELPEKSKLQEIYQELTWLKAAVGELPEKSKMQEIYQELTRLKAAVGELPEKSKQQEIYQELTRLKAAVGELPEKSKQQEIYQELTRLKAAVGELPEKSKQQEIYQELTQLKAAVERLCHPCPWEWTFFQGNCYFMSNSQRNWHDSITACKEVGAQLVVIKSAEEQNFLQLQSSRSNRFTWMGLSDLNQEGTWQWVDGSPLLPSFKQYWNRGEPNNVGEEDCAEFSGNGWNDDKCNLAKFWICKKSAASCSRDEEQFLSPAPATPNPPPA
notes: DC-SIGN, entire extracellular domain, residues 70-404 of GenBank NP_066978; cDNA of immature monocyte-derived dendritic cells; the sense primer carries an ATG before the first DC-SIGN codon; The preparation is a monomer:tetramer equilibrium (3.3:1 tetramer to monomer by SEC); the tetramer predominates. pET15b normally adds an N-terminal His6 tag with a thrombin site (surmised); no cleavage is …
In general, stoichiometry N refers to the number of molecules, sites or subunits per partner or assembly. On to B1, for which the “stoichiometry N” value amounted to 4.
